Blank lines part the entries; values can stand above or below the binder they belong to. Where no end group is shown, it is not given here.
Legend:
[1] = biological target: endogenous CRF-R2β of A7r5 rat aortic smooth muscle cells (rat), P47866; assay: cell-based or functional assay
[2] = biological target: rat CRF receptor type 2α (rat) (UniProt P47866); assay: radioligand displacement ([125I-Tyr0,Glu1,Nle17]-sauvagine), CHO membranes
[3] = biological target: mouse CRF receptor type 2β (mouse) (UniProt Q60748); assay: as above

endogenous CRF-R2β of A7r5 rat aortic smooth muscle cells (rat), P47866, sequence (P47866 20-411): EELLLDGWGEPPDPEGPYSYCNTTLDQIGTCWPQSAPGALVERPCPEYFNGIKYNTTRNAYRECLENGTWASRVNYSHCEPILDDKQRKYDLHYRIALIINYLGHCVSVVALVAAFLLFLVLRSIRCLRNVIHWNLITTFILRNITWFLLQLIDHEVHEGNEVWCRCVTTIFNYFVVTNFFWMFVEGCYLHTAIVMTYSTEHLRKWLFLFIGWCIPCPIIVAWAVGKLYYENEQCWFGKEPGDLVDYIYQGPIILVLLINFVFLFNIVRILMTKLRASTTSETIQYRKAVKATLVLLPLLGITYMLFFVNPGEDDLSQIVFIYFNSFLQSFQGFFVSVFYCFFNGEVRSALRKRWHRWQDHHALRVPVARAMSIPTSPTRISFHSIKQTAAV
rat CRF receptor type 2α (rat), sequence (P47866 20-411): as above

cAMP accumulation in A7r5 rat aortic smooth muscle cells, EC50 [1]: 80.9 nM
Ki [2]: 21.7 nM
Ki [3]: 13.5 nM
Binder: FTLSLDVPTNIMNLLFNIAKAKNLRAQAAANAHLMAQI-NH2 [Urocortin III (human)]

Ki [2]: 1.7 nM
Ki [3]: 0.5 nM
Binder: IVLSLDVPIGLLQILLEQARARAAREQATTNARILARV (peptide, UniProt Q96RP3 72-109, looked up) [Urocortin II (human)]

Continued, binder first:

Binder: VILSLDVPIGLLRILLEQARYKAARNQAATNAQILAHV (peptide, UniProt Q99ML8 73-110, looked up) [Urocortin II (mouse), Q99ML8 73-110]
cAMP accumulation in A7r5 rat aortic smooth muscle cells, EC50 [1]: 0.18 nM

Binder: FTLSLDVPTNIMNILFNIDKAKNLRAKAAANAQLMAQI-NH2 [Urocortin III (mouse)]
cAMP accumulation in A7r5 rat aortic smooth muscle cells, EC50 [1]: 3.7 nM
Ki [2]: 5 nM
Ki [3]: 1.8 nM

Binder: VILSLDVPIGLLRILLEQARYKAARNQAATNAQILAHV (peptide, UniProt Q99ML8 73-110, looked up) [Urocortin II (mouse)]
Ki [2]: 2.1 nM
Ki [3]: 0.66 nM
